Assay results as given in PMC10338342, “Cooperation between bHLH transcription factors and histones for DNA access” (Nature, 2023).

B1: BMAL1 bHLH PAS-AB (residues 62-441), chain of the CLOCK-BMAL1 heterodimer (domain or fragment)
chain: not shown
notes: BMAL1, mouse, bHLH PAS-AB, residues 62-441; Always present as part of m1; made a molecule of its own for the contacts that the structures and cross-links assign to BMAL1
B2: CLOCK bHLH PAS-AB (residues 26-395), chain of the CLOCK-BMAL1 heterodimer (domain or fragment, mouse, UniProt O08785 26-395, looked up)
chain: VEEDDKDKAKRVSRNKSEKKRRDQFNVLIKELGSMLPGNARKMDKSTVLQKSIDFLRKHKETTAQSDASEIRQDWKPTFLSNEEFTQLMLEALDGFFLAIMTDGSIIYVSESVTSLLEHLPSDLVDQSIFNFIPEGEHSEVYKILSTHLLESDSLTPEYLKSKNQLEFCCHMLRGTIDPKEPSTYEYVRFIGNFKSLTSVSTSTHNGFEGTIQRTHRPSYEDRVCFVATVRLATPQFIKEMCTVEEPNEEFTSRHSLEWKFLFLDHRAPPIIGYLPFEVLGTSGYDYYHVDDLENLAKCHEHLMQYGKGKSCYYRFLTKGQQWIWLQTHYYITYHQWNSRPEFIVCTHTVVSYAEVRAERRRELGIEESL
notes: CLOCK, mouse, bHLH PAS-AB, residues 26-395; Always present as part of m1; made a molecule of its own for the contacts that the structures and cross-links assign to CLOCK
B3: CLOCK-BMAL1 bHLH PAS-AB heterodimer (complex)
chain 1: B2 chain
chain 2: not shown
notes: CLOCK, mouse, bHLH PAS-AB, residues 26-395; BMAL1, mouse, bHLH PAS-AB, residues 62-441; also called CB; CLOCK-BMAL1 WT; source: insect cells (Spodoptera frugiperda or Hi5), purified (Ni-NTA, TEV cleavage, heparin, Superdex 200); copies: 1 + 1
B4: mouse CLOCK bHLH (residues 29–89) with an additional C-terminal tryptophan (domain or fragment)
chain: DDKDKAKRVSRNKSEKKRRDQFNVLIKELGSMLPGNARKMDKSTVLQKSIDFLRKHKETTAW
notes: CLOCK, mouse, bHLH, residues 29-89; additional tryptophan engineered at the C terminus to allow for UV detection; source: E. coli vector (pET28-derived), expressed and purified separately (HisTrap HP)

Assays:
[1] = target: histone H3.1 (human), in the nucleosome (human, UniProt P68431 1-136); test: cross-linking; XL-MS with DSSO, TF and nucleosome mixed 1.5:1; CLOCK-BMAL1 with NCP SHL−6.2; details: both partners purified
[2] = target: T1, histone H4 (human), in the nucleosome (human, UniProt P62805 1-103); test: cryo-EM structure; CLOCK-BMAL1 on a W601-variant nucleosome with a histone-facing E-box at SHL−6.2 (1:3 NCP:TF), GraFix cross-linked; 3.8 Å overall; PAS domains placed by Rosetta local docking with density scoring and one cross-link; details: both partners purified
T1 construct: Always part of m4; source: in the reconstituted nucleosome

[3] = target: T1, histone H4 (human), in the nucleosome; test: cryo-EM structure; CLOCK-BMAL1 on the endogenous Por enhancer nucleosome with tandem E-boxes 7 bp apart (1:3), GraFix cross-linked; 3.8 Å overall; details: both partners purified
[4] = target: B1; test: cryo-EM structure; CLOCK-BMAL1 on a W601-variant nucleosome with a solvent-exposed E-box at SHL+5.8 (1:1.5 NCP:TF), GraFix glutaraldehyde cross-linked; 3.6 Å overall, PAS domains 9-11 Å; details: both partners purified
[5] = target: the molecule itself; test: cryo-EM structure; CLOCK-BMAL1 on the endogenous Por enhancer nucleosome with tandem E-boxes 7 bp apart (1:3), GraFix cross-linked; 3.8 Å overall
[6] = target: T2, mouse BMAL1 bHLH (residues 73–135) with an additional C-terminal tryptophan (mouse, UniProt Q9WTL8 73-135); test: SEC; CLOCK bHLH and BMAL1 bHLH purified separately, mixed at equimolar ratios, about one hour on ice, S75 10/300 GL column; details: both partners purified
T2 construct: BMAL1, mouse, bHLH, residues 73-135; additional tryptophan engineered at the C terminus to allow for UV detection; source: E. coli vector (pET28-derived), expressed and purified separately (HisTrap HP)

Binder: B1
- binding result [1]: binds
- binding result [2]: binds

Binder: B2
- binding result [3]: binds
- binding result [4]: binds

Binder: B3
- binding result [5]: binds

Binder: B4
- binding result [6]: binds
